For 14 sequences, Kd results are on record in the Immune Epitope Database (IEDB).

A value given as a limit tells only on which side of the number the result lay.

The target of assay [1] is HLA-B*18:01. Nature of the assay: IEDB peptide-MHC binding, purified MHC/competitive/radioactivity; filed as Kd, often an IC50 or EC50 that approximates it; ≥ and ≤ were set here for values at or beyond the usual limits of such assays.
For another assay, the target named is HLA-B*40:01. Described as above.
In another assay the target is HLA-B*40:02. The description is as above.
Another assay addresses HLA-B*44:02. The assay is described as above.
In a further assay the target is HLA-B*44:03. The description is as above.
The next assay concerns the target HLA-B*45:01. The assay is described as above.
The next assay addresses HLA-A*02:01. Kind of assay: IEDB peptide-MHC binding, purified MHC/direct/fluorescence; filed as Kd, often an IC50 or EC50 that approximates it; ≥ and ≤ were set here for values at or beyond the usual limits of such assays. The note with it: source organism: Itapua hantavirus.
In another assay the target is HLA-A*03:01. The description is as above. The note with it: source organism: Araucaria virus.
The target of the next assay is HLA-A*26:01. Kind of assay: IEDB peptide-MHC binding, purified MHC/competitive/fluorescence; filed as Kd, often an IC50 or EC50 that approximates it; ≥ and ≤ were set here for values at or beyond the usual limits of such assays. The note with it: source organism: Araucaria virus.
Another assay has as its target HLA-B*15:17. The assay is described as above. The note with it: source organism: Araucaria virus.
Assay [2] deals with HLA-B*18:01. The description is as above. The note with it: source organism: Araucaria virus.
Another assay has as its target HLA-B*27:03. The description is as above. The note with it: source organism: Araucaria virus.
Another assay concerns the target HLA-B*46:01. Described as above. The note with it: source organism: Araucaria virus.
The next assay concerns the target HLA-B*51:01. Described as above.
The next assay deals with HLA-B*57:01. Described as above. The note with it: source organism: Araucaria virus.
The next assay deals with HLA-B*07:02. Kind of assay: IEDB peptide-MHC binding, purified MHC/competitive/radioactivity; filed as Kd, often an IC50 or EC50 that approximates it; ≥ and ≤ were set here for values at or beyond the usual limits of such assays.
The mark [3] stands for this setting: source organism: SARS coronavirus Tor2.
Setting [4] is: source organism: Mammarenavirus brazilense.
The mark [5] stands for this setting: source organism: Mammarenavirus choriomeningitidis.

For the sequence FELLNAPAT, the Kd with HLA-B*18:01 [1] (setting [3]) worked out at 0.303 µM; in the assay with HLA-B*40:01 (setting [3]), 1.17 µM; with HLA-B*40:02 (setting [3]) it was 0.0111 µM; with HLA-B*44:02 (setting [3]), 5.79 µM; in the assay with HLA-B*44:03 (setting [3]), 6.13 µM; with HLA-B*45:01 (setting [3]) it was 0.392 µM.

For FLAAECPFL, the dissociation constant (Kd) in the assay with HLA-A*02:01 is 0.0017 µM; with HLA-A*03:01, no less than 20 µM; with HLA-A*26:01, no less than 20 µM; with HLA-B*15:17, no less than 20 µM; in the assay with HLA-B*18:01 [2], no less than 20 µM; with HLA-B*27:03, no less than 20 µM. Also, the equilibrium dissociation constant (Kd) with HLA-B*46:01, with HLA-B*51:01 (source organism: Araucaria virus) and with HLA-B*57:01 was no less than 20 µM in each case.

As for LPVLSLNWV, the equilibrium dissociation constant (Kd) in the assay with HLA-B*51:01 (source organism: Vibrio vulnificus YJ016) stood at 0.278 µM.

Take GDEALRGFL: the Kd with HLA-B*18:01 [1] (setting [4]) is no less than 50.9 µM; with HLA-B*40:01 (setting [4]), 7.01 µM; with HLA-B*40:02 (setting [4]), 0.826 µM; with HLA-B*44:02 (setting [4]), no less than 47 µM; in the assay with HLA-B*44:03 (setting [4]), no less than 36.1 µM; with HLA-B*45:01 (setting [4]) it was no less than 43.7 µM.

For the sequence QDPLLGTLS, the Kd is no less than 77.5 µM with HLA-B*18:01 [1] (setting [4]); no less than 46.4 µM in the assay with HLA-B*40:01 (setting [4]); 12.6 µM in the assay with HLA-B*40:02 (setting [4]); no less than 77.9 µM with HLA-B*44:02 (setting [4]); no less than 30.4 µM with HLA-B*44:03 (setting [4]); no less than 74.3 µM with HLA-B*45:01 (setting [4]).

Take RELHLSWEVG: the dissociation constant (Kd) with HLA-B*18:01 [1] (setting [3]) was found to be 1.59 µM; in the assay with HLA-B*40:01 (setting [3]), 0.829 µM; in the assay with HLA-B*40:02 (setting [3]), 0.198 µM; with HLA-B*44:02 (setting [3]), 0.0083 µM; in the assay with HLA-B*44:03 (setting [3]), 0.0427 µM; with HLA-B*45:01 (setting [3]), 1.28 µM.

Regarding FDAWFSQRGG, the Kd with HLA-B*18:01 [1] (setting [3]) was no less than 70.5 µM; with HLA-B*40:01 (setting [3]), no less than 69.6 µM; in the assay with HLA-B*40:02 (setting [3]) it was no less than 70.8 µM; with HLA-B*44:02 (setting [3]) it was 9.75 µM; with HLA-B*44:03 (setting [3]) it was no less than 32 µM; with HLA-B*45:01 (setting [3]), 0.36 µM.

As for GPWHLGKLEM, in the assay with HLA-B*07:02 (source organism: Dengue virus 2 Jamaica/1409/1983), the Kd came to 0.0593 µM.

As to AELLPDTTY, the Kd with HLA-B*18:01 [1] (setting [5]) was 1.16 µM; in the assay with HLA-B*40:01 (setting [5]), no less than 43.3 µM; in the assay with HLA-B*40:02 (setting [5]), no less than 40.4 µM; in the assay with HLA-B*44:02 (setting [5]), 0.353 µM; with HLA-B*44:03 (setting [5]), 0.52 µM; with HLA-B*45:01 (setting [5]) it was 7.85 µM.

As for AEVQIDRLIT, the Kd is no less than 25.9 µM with HLA-B*18:01 [1] (setting [3]); 1.24 µM with HLA-B*40:01 (setting [3]); 0.0587 µM with HLA-B*40:02 (setting [3]); 1.66 µM with HLA-B*44:02 (setting [3]); 0.0905 µM with HLA-B*44:03 (setting [3]); 0.157 µM in the assay with HLA-B*45:01 (setting [3]).

Take KEEILGTVSW: the Kd with HLA-B*18:01 [1] (setting [3]) was determined as 0.468 µM; in the assay with HLA-B*40:01 (setting [3]), 19.5 µM; with HLA-B*40:02 (setting [3]), 0.266 µM; with HLA-B*44:02 (setting [3]), 0.00447 µM; with HLA-B*44:03 (setting [3]) it was 0.0481 µM; with HLA-B*45:01 (setting [3]) it was 2.81 µM.

Regarding REEAIRHVRA, the Kd with HLA-B*18:01 [1] (setting [3]) was no less than 70.5 µM; with HLA-B*40:01 (setting [3]), 0.689 µM; with HLA-B*40:02 (setting [3]), 3.33 µM; with HLA-B*44:02 (setting [3]), 18.8 µM; with HLA-B*44:03 (setting [3]), no less than 45.9 µM; with HLA-B*45:01 (setting [3]), 0.0576 µM.

Take KPIDDRFAT: in the assay with HLA-B*07:02 (source organism: Dengue virus 1 Brazil/97-11/1997), the Kd was determined as 0.0493 µM.

As for RELHLSWEV, the equilibrium dissociation constant (Kd) stood at 0.0788 µM with HLA-B*18:01 [1] (setting [3]); 0.00307 µM with HLA-B*40:01 (setting [3]); 0.00497 µM with HLA-B*40:02 (setting [3]); 0.0877 µM in the assay with HLA-B*44:02 (setting [3]); 0.0215 µM in the assay with HLA-B*44:03 (setting [3]); 0.0177 µM with HLA-B*45:01 (setting [3]).
